B1: SjGMD1 (Saccharina japonica) (protein)
chain: MAEVMPKESIIQIGCGVVGGAYAKAYKHHGFSVRGFDVVPSIIEKMNDAGIPCCHPDDCPEDLNPEIVLLSVPTPLIKETQRLDMKYVWSTVPLVLKLVEQSTGPAPIFVIRSTVPPGMTKEWMAAVKEKATKPFHVAFQPEFLRAVSCEEDARAPWQVVFGYMTGEEEVKARMTNAFLEFVGRDESKLTVLNIAEAEFMKLAHNYANGLKISFANCIYGLANQLDPTIDAQKVLYLVSSTAECFLSRKYGLRVGAPYGGVCLPKDVPELTSLAPEGSVFREFLAGTGKINEWISGPEAKNMRVELDESPNWVSPDSLTT
B2: SjGMD2 (Saccharina japonica) (protein)
chain: MSGKENVVQIGCGVVGGAYAKAYVHHGFSLTGFDVVPAIIGNMNEAGIKCFHPDDCPADLNADIVLLSVPTPLIKETQRLDMKYVWSTIPLVVKLVEQSSGLAPILVIRSTVPPGTTLKWEAEVRAKTDKPFKVAFQPEFLRAVSCEEDARAPWQIVFGCAKDADETRTRMSNCFLDFVGRDEAKLTVLNIAEAEFMKLVHNYANGLKISFANCIYGLAHELDPTIDAQKVLYLVSSTAECYLSRKYGLRVGAPYGGVCLPKDVPELTSLAPEGSVFREFLAGTGKINEWITNTPNLKVELTESPNWVSPSELII

Tests used:
purified protein [1] = substrate: NC(=O)c1ccc[n+]([C@@H]2O[C@H](COP(=O)(O)OP(=O)(O)OC[C@H]3O[C@@H](n4cnc5c(N)ncnc54)[C@H](O)[C@@H]3O)[C@@H](O)[C@H]2O)c1; experiment: purified protein; format: biochemical, Saccharina japonica; conditions: 100 mM Tris-HCl, co-substrate GDP-mannose, MBP fusion, varied: cofactor
purified protein [2] = substrate: Nc1nc2c(ncn2[C@@H]2O[C@H](COP(=O)(O)OP(=O)(O)O[C@H]3O[C@H](CO)[C@@H](O)[C@H](O)[C@@H]3O)[C@@H](O)[C@H]2O)c(=O)[nH]1; experiment: purified protein; format: biochemical, Saccharina japonica; conditions: 100 mM Tris-HCl, co-substrate NAD+, MBP fusion
[3] = optimal conditions (pH 8.0, 30 °C)
[4] = optimal conditions (pH 8.25, 20 °C)

Protein | Km (purified protein [1]; [3]) | Km (purified protein [2]; [3]) | Km (purified protein [1]; [4]) | Km (purified protein [2]; [4])
B1 | 139 µM | 289 µM |  | 
B2 |  |  | 195 µM | 177 µM
